Assay results taken from the nanobody polyreactivity screen of Harvey et al. (2022).

Test: yeast display, Sf9 membrane polyspecificity reagent, FACS + sequencing; frameworks hold sequencing errors
Procedure, shortened: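 Nanobodies came from a synthetic yeast display library in Saccharomyces cerevisiae BJ5465, induced with galactose for 36–48 hours and stained for 1 hour at 4 °C with 10% biotinylated, detergent-solubilized Sf9 membrane reagent. Cells were enriched on streptavidin microbeads and then FACS-sorted, with low and high (top ~1%) gates set on anti-HA fluorescence for expression and streptavidin fluorescence for reagent binding. Each polyreactivity label reflects the gate a clone came from. Genes were amplified by colony PCR, sequenced by MiSeq 2 × 250 and filtered by CDR length.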

Sequence	polyreactivity (PSR sort gate)
QVQLVESGGGLVQAGGSLRLSFAASGIIFTRYAMGWYRQAPGKERELVARISWRGSSTSYPDSVKGRFTISRDNAKNTVYLQMNSLKPEDSAVYYCAARYLYLWADYEFGYWVQGTQVTVSS	high polyreactivity
QVQLVESGGGLVQAGGSLRLSCAASVSIFQKNARGWYRQAPGKERELVAVITRGGTSTYYADSVKGRFTISRDNAKNTVYLQMNSLKPEDTAVYDCAADSGFDTAPYDFWGQGTQVTVSS	low polyreactivity
QVQLVESGGGLVQAGGSLRLSCAASGLTFWNNAMGWYRQAPGKERELVARINNGDNTYYADSVKGRFTISRDNAKNTVYLQMNSLKPEDTAVYYCAAKRYSNIPWIHDISTFYYWGQGTQVTVSS	low polyreactivity
QVQLVESGGALVQAGGSLRLSCAASGRTFGVYAMGWYRQAPGKERELVAAISRRAGNTYYADSVKGRFTISRDNAKNTVYLQMNSLKTEDTAVYYCAADFSRQYGYWGQGTQVTVSS	high polyreactivity
QVQLVESGGGLVQAGGSLRLSCAASGFTFRYYAMGWYRQAPGKERELVAGISRGGSTYYADSVKGRFTISRDNAKNSVYLQMNSLKPEDTAVYYCAARSYARKSYEMGYWGQGTQVTVSS	high polyreactivity
QVQLVESGGGLVQAGGSLRLSCAASGRTFYYYTMGWSRQAPGKERELVAAITSVGSTSYADSVKGRFTISRANAKNTVYLQMNSPKPEATAVYYCAADYQYVWFYYWGQGTQVTVSS	high polyreactivity
QVQLVESGGGLVQAGGSLRLSCAASGSTLDFYAMGWYRPAPGKERELVAAITWRGGSTYYADSVKGRFTISRDNAKNTVYLQMNCLKPEDTAVYYCAAKSYWLKSQYYSWGQGTQVTVSS	high polyreactivity
QVQLVESGGGLVQAGGSLRLSCAASGRIFYDYAMGWYRQAPGKEREFVAAIRWRGGSTYYADSVKGRFTISRDNAKNTVYLQMNSLKPEDTAVYYCATKSYYKFGYWGQGTQVTVSS	high polyreactivity
QVQLVESGGGLVQAGGSLRLSCAASGRIFTSNAMAWYRQAPGKERELVAAISASGGRTYYADSVKGRFTISRDNAKNTVYLQMNSLKPEDTAVYYCAALSTGRLSDHGYWGQGTQVTVSS	high polyreactivity
QVQLVESGGGLVQAGGSLRLSCAASGITFVFYTMGWYRQAPGKERELVAAIARSGASTYYADSVKGRFTLSRDNAKNTVYLQMNSLKPEDTALYYGAADRGYRFRMDYWGQGTQVTVSS	high polyreactivity
QVQLVESGGGLVQAGGSLRLSCAASGRTFRPYAMGWYRQAPGKEREFVARITWSGGTTYYADSVKGRFTISRDNAKNTVYLQMNRLKPEDTAVYYCAARVSRQTPVISYNYWGQGTQVTVSS	low polyreactivity
QVQLVESGGGLVQAGASLRLSCAASGYTLDNYAMGWYRQAPWKERELVAGITFSGGSTFYADSVKGRFTISRDNAKNTVYLQMNRLKPEDTAVYYCAAEAEFQADHKYGYWGQGTQVTVSS	low polyreactivity
QVQLVESGGGLVQAGGSLRLSCPASGSIFDVYTMGWYRQAPGKEMELVAAINTGGGSTYYADSVKGRFTISRDTAKNTVYLQMYSMKPEDTAVYSCAKEVSPYWTFDYWGQGTQVTVSS	low polyreactivity
QVQLVESGGGLVQAGGSLRLSCAASGSSFFSNAMGWYRQAPGKERELVASIRSGTRTNYADSVKGRFTISRDNAKNTVYLLMNILKPADTAVYYCAKKWGLDKHRIGHRRLDYWGQGTQVTVSS	low polyreactivity
QVQLVESGGGLVQAGGSLRLSCAASGSIFPGYAMGWYRQAPGKERELVATITYSDGSTYYADSVKRRFTISRDIATNTVFLQMNSLKPEDTAGYYCAVTYWWYYGYDYWGQGTQVTVSS	low polyreactivity
QVQLVESGGGLVQAGGSLRLSCAASGRIFYQYAMGWYRQAPGKERELVAAISWNGGRTYYADSVKGRFTISRDNAKNTVYLQMNSPKPEDTAVYYCNAVASKSFYYRDNYWGQGTQVTVSS	high polyreactivity
QDQLVDSGGGLVQAGGSLRFSCAASGFIFRFNAMGWYRQAPGKERELVADIRWSSGSTYYADSVKGRYTISRDNAKNTVYLEMNSLKPEDTAVFYCAVTYLRVHYKFTPFDYWGQGTQVTVSS	low polyreactivity
QVQLVESGGGLVQAGGSLRLICAASGRIFRANARGWYRQAPGKERELVATIRNSGGITYYADSVKGRFTISRDHAKNTVYLQMNSLKPEDTALYYCGNLGRYCYDYWGQGTQVTVSS	high polyreactivity
QVQLVESGGGLVQAGGSLRLSCAASGRIFALNALGWYRQAPGKERELVATFRWSGGSTYYADSVKGRFTISRDYAKNTVYLQMNSLKPEDTAVYYCAAYSGNRRTYDYWGHGTQVTVSS	high polyreactivity
QVQLVESGGGLVQAGGSLRLSCAASGSTFSYNAMGWYRQAPGKERELVAAITSSGSSTYYADSVKGRFTISRYNAKNTVYLQMNSLKPEDTAVYYCNAEVLFVAGQVQRNSGDYWGQGTQVTVSS	low polyreactivity
QVQRVESGGGLVQAGRSLRLSCAASGTTFGRNAMGWYRQAPGIERELVAAINSGGGTYYADSVKGRFTISRDNAKNTVYLQMNSLKPEDTSVFYCAAARRYGNYDYWGQGTQLTVSS	low polyreactivity
QVQLVESGGGLVQAGGSLRLSCAASGRIFYYYAMGWYRQAPGKERELVAAITRGGGTYYADSVKGRFTISRDNAKNTVYLQMNSLKPEDTAVYYCAKRGPPESHHPYRYRFDYWGQGTQVTVSS	low polyreactivity
QVQLVESGGGLVQAGGRLRLSCAASGRTMGWYRQAPRKERELVAAITSGGGSTYYADSVKWRFTISRDNAKNTVYLQMNSLKPEDTAVYYCARTTIAQLHSIVAPHDYWGQGTQVNVSS	low polyreactivity
QVQLVESGGGLVQAGCSLRISCAASGSTFYINAMGWYRQAPGKERELVAAISRGGSTYYADSVKGRFTISRDNAKNTVYLQMNSLKPEDTAVYYCAADFSRSYRFNYWGQGTQVTVSS	high polyreactivity
QVQLVESGGGLVQAGGSLRLSCAASGFTFYSNAMGWYRQAPGKERELVATIRYRGGSTYADSVKGRFTISRDNAKNTVYLQMNSLKPEDTAVYYCAARKYRSFRQRTGDYWGQGTQVTVSS	high polyreactivity
QVQLVESGGGLVQAGGSLRLRCAASARTFAGYALGWYRQAPGKERELVAAITTGGSTKYADSVKGRFTISRDNAKNTVYLQMNSLKQEDTAVYYCAAESYYKYFNKYDYWGQGTQVTVSS	high polyreactivity
QVQLVESGGGLVQAGGSLRLSCAASGFTFSYNTMGWYRQAPGKERELVAAISRSGGRTYYADSVKGRFTISRDNAKNTVYLQMNSLKPEDTAVYYCARYSVTGYGANSGPEMDYWGQGTQVTVSS	high polyreactivity
QVQLQESGGGLVQAGGSLRLSCAASGSISHYIFMGWYRQAPGKEREFVAGIGYGGTTNYADSVKGRFTISRDNAINTVYLQMNSLKPEDTAMYYCAAREATEFYLYYWGQGTQVTVSS	low polyreactivity
QVQLVESGGGLVQAGGSLRLSCAASVIIFNRYAMGRYRQAPGKERELVAAISGTGASTYYADSVKGRFTISRDNAKNTVYLQMNSLKPEDTAVYYCNARKRYKSGYWGQGTQVTVSS	high polyreactivity
QVQLVESGGGLVQAGGSLRLSCAASGFIFGDYAMGWYRQAPGKERELVAAIRGSDSTTYYADSVKGRFTISRDNAKNTVYLQMNSLKPEDTAVYYCAAVGVVPRKKSARVYYWGQGTQVTVSS	low polyreactivity
